# Source: IntAct's records for PubMed 19114660
# B1: Occludin (Homo sapiens), Q16625-1 (parent)
# chain: MSSRPLESPPPYRPDEFKPNHYAPSNDIYGGEMHVRPMLSQPAYSFYPEDEILHFYKWTSPPGVIRILSMLIIVMCIAIFACVASTLAWDRGYGTSLLGGSVGYPYGGSGFGSYGSGYGYGYGYGYGYGGYTDPRAAKGFMLAMAAFCFIAALVIFVTSVIRSEMSRTRRYYLSVIIVSAILGIMVFIATIVYIMGVNPTAQSSGSLYGSQIYALCNQFYTPAATGLYVDQYLYHYCVVDPQEAIAIVLGFMIIVAFALIIFFAVKTRRKMDRYDKSNILWDKEHIYDEQPPNVEEWVKNVSAGTQDVPSPPSDYVERVDSPMAYSSNGKVNDKRFYPESSYKSTPVPEVVQELPLTSPVDDFRQPRYSSGGNFETPSKRAPAKGRAGRSKRTEQDHYETDYTTGGESCDELEEDWIREYPPITSDQQRQLYKRNFDTGLQEYKSLQSELDEINKELSRLDKELDDYREESEEYMAAADEYNRLKQVKGSADYKSKKNHCKQLKSKLSHIKKMVGDYDRQKT
# Variants of: B1
# Settings: with kpcl_human kpcl_human
row,effect of a mutation on the interaction,Variant
1,decreasing interaction,MSSRPLESPPPYRPDEFKPNHYAPSNDIYGGEMHVRPMLSQPAYSFYPEDEILHFYKWTSPPGVIRILSMLIIVMCIAIFACVASTLAWDRGYGTSLLGGSVGYPYGGSGFGSYGSGYGYGYGYGYGYGGYTDPRAAKGFMLAMAAFCFIAALVIFVTSVIRSEMSRTRRYYLSVIIVSAILGIMVFIATIVYIMGVNPTAQSSGSLYGSQIYALCNQFYTPAATGLYVDQYLYHYCVVDPQEAIAIVLGFMIIVAFALIIFFAVKTRRKMDRYDKSNILWDKEHIYDEQPPNVEEWVKNVSAGTQDVPSPPSDYVERVDSPMAYSSNGKVNDKRFYPESSYKSTPVPEVVQELPLTSPVDDFRQPRYSSGGNFETPSKRAPAKGRAGRSKRTEQDHYETDYTTGGESCDELEEDWIREYPPITSDQQRQLYKRNFDAGLQEYKSLQSELDEINKELSRLDKELDDYREESEEYMAAADEYNRLKQVKGSADYKSKKNHCKQLKSKLSHIKKMVGDYDRQKT [T438A]
2,decreasing interaction,MSSRPLESPPPYRPDEFKPNHYAPSNDIYGGEMHVRPMLSQPAYSFYPEDEILHFYKWTSPPGVIRILSMLIIVMCIAIFACVASTLAWDRGYGTSLLGGSVGYPYGGSGFGSYGSGYGYGYGYGYGYGGYTDPRAAKGFMLAMAAFCFIAALVIFVTSVIRSEMSRTRRYYLSVIIVSAILGIMVFIATIVYIMGVNPTAQSSGSLYGSQIYALCNQFYTPAATGLYVDQYLYHYCVVDPQEAIAIVLGFMIIVAFALIIFFAVKTRRKMDRYDKSNILWDKEHIYDEQPPNVEEWVKNVSAGTQDVPSPPSDYVERVDSPMAYSSNGKVNDKRFYPESSYKSTPVPEVVQELPLTSPVDDFRQPRYSSGGNFETPSKRAPAKGRAGRSKRTEQDHYETDYTAGGESCDELEEDWIREYPPITSDQQRQLYKRNFDTGLQEYKSLQSELDEINKELSRLDKELDDYREESEEYMAAADEYNRLKQVKGSADYKSKKNHCKQLKSKLSHIKKMVGDYDRQKT [T404A]
3,decreasing interaction,MSSRPLESPPPYRPDEFKPNHYAPSNDIYGGEMHVRPMLSQPAYSFYPEDEILHFYKWTSPPGVIRILSMLIIVMCIAIFACVASTLAWDRGYGTSLLGGSVGYPYGGSGFGSYGSGYGYGYGYGYGYGGYTDPRAAKGFMLAMAAFCFIAALVIFVTSVIRSEMSRTRRYYLSVIIVSAILGIMVFIATIVYIMGVNPTAQSSGSLYGSQIYALCNQFYTPAATGLYVDQYLYHYCVVDPQEAIAIVLGFMIIVAFALIIFFAVKTRRKMDRYDKSNILWDKEHIYDEQPPNVEEWVKNVSAGTQDVPSPPSDYVERVDSPMAYSSNGKVNDKRFYPESSYKSTPVPEVVQELPLTSPVDDFRQPRYSSGGNFETPSKRAPAKGRAGRSKRTEQDHYETDYATGGESCDELEEDWIREYPPITSDQQRQLYKRNFDTGLQEYKSLQSELDEINKELSRLDKELDDYREESEEYMAAADEYNRLKQVKGSADYKSKKNHCKQLKSKLSHIKKMVGDYDRQKT [T403A]
